In patent US7087711 (Harvard, dated 2006):

Target: T1, TATA-binding protein (TBP) (yeast, UniProt P13393 1-240, limits assumed)
T1 construct: Soluble analyte, injected over Gal4 derivatives captured on DNA in SPR
T1 sequence (looked up): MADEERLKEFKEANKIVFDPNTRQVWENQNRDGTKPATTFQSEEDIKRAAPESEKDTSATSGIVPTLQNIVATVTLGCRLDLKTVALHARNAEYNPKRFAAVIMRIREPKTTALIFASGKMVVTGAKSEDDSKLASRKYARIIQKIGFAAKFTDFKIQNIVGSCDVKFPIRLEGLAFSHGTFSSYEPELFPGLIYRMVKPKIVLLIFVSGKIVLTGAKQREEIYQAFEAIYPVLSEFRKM
Experiment: SPR, Gal4 derivative captured on a DNA-bearing chip, TBP injected
Protocol: PROTEIN—PROTEIN INTERACTIONS: The activators (GAL4 derivatives and other activating regions fused to GAL4 DNA binding domain) were first passed over the DNA-bearing chip. Typically 10 µl of 0.01 mg/ml protein solution (~1 µM) in HBS (10 mM HEPES pH 7.4, 150 mM NaCl, 0.0005% Surfectant P20, Pharmacia) were injected at a flow rate of 5 µl/min, and the DNA was saturated by the activators. This is indicated by the first increase of the RU value on the sensorgrams. Various proteins to be tested (e.g., TBP) were then injected (typically 20 µl of […] solution in HBS at a flow rate of 5 µl/min), and their binding to the activating regions was indicated by the second increase of the RU value on the sensogram. The DNA bearing chip was then regenerated by washing with 10 µl of 0.1% SDS, a procedure that washes both proteins off the DNA, but leaves the DNA bearing chip intact. The baseline of the sensorgrams always comes back to the original level after each regeneration. A different activator was then injected to the same surface at the same concentration, and the DNA was once again saturated with the activators. As a consequence the same number of the molecules of the activators was immobilized to the chip each time. The protein to be tested (e.g., TBP) was once again injected and its binding to this activator was compared to that of the previous one. […]

Row | Binder | Ka
1 | GAL4(1-100)+(840-881) fusion (other, yeast, UniProt P04386 1-100, looked up, range 1-100;range 840-881; also called G4RII' (as Gal4(840-881)) fused to Gal4(1-100); RJR182) MKLLSSIEQACDICRLKKLKCSKEKPKCAKCLKNNWECRYSPKTKRSPLTRAHLTEVESRLERLEQLFLLIFPREDLDMILKMDSLQDIKALLTGLFVQDWTDQTAYNAFGITTGMFNTTTMDDVYNYLFDDEDTPPNPKKE | 6e+06 M⁻¹
2 | GAL4(1-100)+(840-857) (other, yeast, UniProt P04386 1-100, looked up, range 1-100;range 840-857) MKLLSSIEQACDICRLKKLKCSKEKPKCAKCLKNNWECRYSPKTKRSPLTRAHLTEVESRLERLEQLFLLIFPREDLDMILKMDSLQDIKALLTGLFVQDWTDQTAYNAFGITTGMFN | 2e+06 M⁻¹
